Values of other authors as cited in paper PMC10155966.

What was measured:
LC8 = LC8 (UniProt P63167)
[1] = biological target: dynein intermediate chain (IC) (Rattus norvegicus) (UniProt Q63100); assay: ITC
Sequence of UniProt Q63100 (Q63100 2-643): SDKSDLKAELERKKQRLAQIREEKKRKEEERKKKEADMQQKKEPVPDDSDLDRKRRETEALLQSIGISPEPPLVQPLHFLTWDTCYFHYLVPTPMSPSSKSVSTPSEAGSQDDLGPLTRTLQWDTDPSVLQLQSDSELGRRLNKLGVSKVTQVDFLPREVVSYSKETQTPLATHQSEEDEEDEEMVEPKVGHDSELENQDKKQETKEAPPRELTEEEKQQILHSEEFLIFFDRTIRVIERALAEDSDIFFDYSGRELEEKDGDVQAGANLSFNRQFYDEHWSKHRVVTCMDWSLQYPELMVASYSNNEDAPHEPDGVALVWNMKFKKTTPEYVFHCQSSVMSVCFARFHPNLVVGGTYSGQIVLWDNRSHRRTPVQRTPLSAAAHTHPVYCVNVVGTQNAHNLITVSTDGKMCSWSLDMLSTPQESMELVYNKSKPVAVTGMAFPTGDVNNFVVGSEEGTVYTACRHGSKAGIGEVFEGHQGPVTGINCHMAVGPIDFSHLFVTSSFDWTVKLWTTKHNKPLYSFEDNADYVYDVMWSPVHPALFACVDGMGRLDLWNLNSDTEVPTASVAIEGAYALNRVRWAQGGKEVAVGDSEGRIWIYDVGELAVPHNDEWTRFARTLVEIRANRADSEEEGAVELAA

Sequence of LC8 (P63167 whole entry): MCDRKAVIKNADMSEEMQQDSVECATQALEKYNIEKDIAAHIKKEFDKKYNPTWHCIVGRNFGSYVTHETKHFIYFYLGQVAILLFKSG

Kd (LC8) | Kd [1] | Substance
0.06 µM |  | LC8 (from UniProt P63167)
 | 2.3 µM | NudE (from UniProt Q9ES39)
